Consider three molecules from US7029857B1, “Processes for obtaining compounds employing SNORF72 receptors” (H. Lundbeck A/S, priority 1999, dated 2006).

Values joined by “and” are separate entries in the source; they are usually repeats but may differ in a detail not shown here. Identical values can stand only once. No end group written: not given here.

The target of assay [1] is T1, SNORF72 (Homo sapiens, UniProt Q9GZQ4, A395T).
T1 construct: expressed in transfected cells; host or cells: COS-7 (transient, DEAE-dextran)
T1 sequence (Q9GZQ4 whole entry A395T): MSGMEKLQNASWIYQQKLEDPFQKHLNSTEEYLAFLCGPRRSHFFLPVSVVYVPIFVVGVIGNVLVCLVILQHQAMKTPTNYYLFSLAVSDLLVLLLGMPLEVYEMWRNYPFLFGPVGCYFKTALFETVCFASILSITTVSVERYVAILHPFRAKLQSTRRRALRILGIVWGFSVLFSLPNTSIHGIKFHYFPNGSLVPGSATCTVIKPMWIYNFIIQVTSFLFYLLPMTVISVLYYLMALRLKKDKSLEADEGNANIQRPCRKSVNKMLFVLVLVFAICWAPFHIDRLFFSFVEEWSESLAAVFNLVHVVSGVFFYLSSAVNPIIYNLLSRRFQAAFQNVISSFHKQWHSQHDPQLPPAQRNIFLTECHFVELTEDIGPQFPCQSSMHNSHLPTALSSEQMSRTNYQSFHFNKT
Kind of assay: Intracellular Ca2+ release (FLIPR) in SNORF72-transfected COS-7 cells. The class given is cell-based. The following applies: stimulation of Ca2+ release, SNORF72-transfected COS-7 cells, n = 2-7 (Table 1A). As for the experimental part: (§1) A typical protocol for the DEAE-dextran method as applied to COS-7 and HEK293 cells is described as follows. Cells to be used for transfection are split 24 hours prior to the transfection to provide flasks which are 70–80% confluent at the time of transfection. Briefly, 8 μg of receptor DNA plus 8 μg of any additional DNA needed (e.g. Gα protein expression vector, reporter construct, antibiotic resistance marker, mock vector, etc.) are added to 9 ml of complete DMEM plus DEAE-dextran mixture (10 mg/ml in PBS). Cells plated into a T225 flask (sub-confluent) are washed once with PBS and the DNA mixture is added to each flask. The cells are allowed to incubate for 30 minutes at 37° C., 5% CO2. Following the incubation, 36 ml of complete DMEM with 80 μM chloroquine is added to each flask and allowed to incubate an additional 3 hours. The medium is then aspirated and 24 ml of complete medium containing 10% DMSO for exactly 2 minutes and then aspirated. The cells are then washed 2 times with PBS and 30 ml of complete DMEM added to each flask. The cells are then allowed to incubate over night. The next day the cells are harvested by trypsinization and reseeded into 96 well plates.
(§2) Cells expressing the receptor of interest are plated into clear, flat-bottom, black-walled 96-well plates (Costar) at a density of 80,000–150,000 cells per well and allowed to incubate for 48 hr at 5% CO2, 37° C. The growth medium is aspirated and 100 μL of loading medium containing Fluo-3 dye is added to each well. The loading medium contains: 20 mM HEPES (Sigma), 0.1% BSA (Sigma), dye/pluronic acid mixture (e.g. 1 mM Fluo-3/AM (Molecular Probes) and 10% pluronic acid (Molecular Probes) mixed immediately before use), and 2.5 mM probenecid (Sigma)(prepared fresh). The cells are allowed to incubate for about 1 hour at 5% CO2, 37° C.
(§3) The compounds of interest are diluted in wash buffer (Hank's BSS (without phenol red), 20 mM HEPES, 2.5 mM probenecid) to a 4× final concentration and aliquoted into a clear v-bottom plate (Nunc). Following the dye incubation, the cells are washed 4 times to remove excess dye using a Denley plate washer. 100 μL final volume of wash buffer is then added to each cell well. Compounds are added to the cell plates and responses are measured using the FLIPR™ instrument. The data are then collected and analyzed using the FLIPR™ software and Graphpad Prism.
(§4) COS-7 cells were transiently transfected with SNORF62, SNORF72 or vector DNA (mock) as described in Materials and Methods.

In assay [2] the target is T2, SNORF62 (Homo sapiens, UniProt Q9HB89).
T2 sequence (Q9HB89 1-426): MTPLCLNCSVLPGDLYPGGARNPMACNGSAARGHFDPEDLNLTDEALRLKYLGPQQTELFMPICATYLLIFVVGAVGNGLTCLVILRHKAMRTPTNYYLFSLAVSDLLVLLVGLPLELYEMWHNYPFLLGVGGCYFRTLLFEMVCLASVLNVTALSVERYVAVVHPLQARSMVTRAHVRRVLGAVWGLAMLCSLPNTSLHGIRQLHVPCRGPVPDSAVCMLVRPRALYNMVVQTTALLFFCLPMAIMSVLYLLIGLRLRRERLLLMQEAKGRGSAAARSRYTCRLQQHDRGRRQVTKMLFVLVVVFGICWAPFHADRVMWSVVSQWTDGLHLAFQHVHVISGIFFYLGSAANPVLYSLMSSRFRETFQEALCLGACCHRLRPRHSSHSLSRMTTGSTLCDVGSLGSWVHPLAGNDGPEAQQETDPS
The assay is described as follows: Intracellular Ca2+ release (FLIPR) in SNORF62-transfected COS-7 cells. In kind it is cell-based. More on the design: The SNORF62 cDNA codes for a protein of 426 amino acids; expressed in transfected cells; host or cells: COS-7 (transient, DEAE-dextran). Conditions: stimulation of Ca2+ release, SNORF62-transfected COS-7 cells, n = 2-7 (Table 1A). Here is the method: as §1, §2, §3, §4

The target of assay [3] is T2, SNORF62. The assay is described as follows: Displacement of [125I]rat NMU-23 binding in SNORF62-transfected COS-7 membranes. Further details: The SNORF62 cDNA codes for a protein of 426 amino acids; expressed in transfected cells; host or cells: COS-7 (transient, DEAE-dextran). Conditions: binding affinity, SNORF62-transfected COS-7 cells (Table 1A); read-out: SNORF62 Avg Ki. As for the experimental part: The specifics of preparing such cell membranes may in some cases be determined by the nature of the ensuing assay but typically involve harvesting whole cells and disrupting the cell pellet by sonication in ice cold buffer (e.g. 20 mM Tris HCl, mM EDTA, pH 7.4 at 4° C.). The resulting crude cell lysate is cleared of cell debris by low speed centrifugation at 200×g for 5 min at 4° C. The cleared supernatant is then centrifuged at 40,000×g for 20 min at 4° C., and the resulting membrane pellet is washed by suspending in ice cold buffer and repeating the high speed centrifugation step. The final washed membrane pellet is resuspended in assay buffer. Protein concentrations are determined by the method of Bradford (1976) using bovine serum albumin as a standard. The membranes may be used immediately or frozen for later use.
(§5) Radioligand binding assays were performed by diluting membranes prepared from cells expressing the receptor in 50 mM Tris buffer (pH=7.4 at 0° C.) containing 0.1% bovine serum albumin (Sigma), aprotinin (0.005 mg/ml, Boehringer Mannheim) and bestatin (0.1 mM, Sigma) as protease inhibitors. The final protein concentration in the assay was 12–40 μg/ml. […] The bound ligand was separated from free by filtration through GF/B filters presoaked in 0.5% polyethyleneimine (PEI), using a Tomtec (Wallac) vacuum filtration device. After addition of Ready Safe (Beckman) scintillation fluid, bound radioactivity was quantitated using a Trilux (Wallac) scintillation counter (approximately 40% counting efficiency of bound counts). Data was fit to non-linear curves using GraphPad Prism.
In this manner, agonist or antagonist compounds that bind to the receptor may be identified as they inhibit the binding of the labeled ligand to the membrane protein of cells expressing the said receptor. Non-specific binding was defined as the amount of radioactivity remaining after incubation of membrane protein in the presence of 100 nM of the unlabeled peptide corresponding to the radioligand used. In equilibrium saturation binding assays membrane preparations or intact cells transfected with the receptor are incubated in the presence of increasing concentrations of the labeled compound to determine the binding affinity of the labeled ligand.
Background: Displacement assays read how much labelled ligand stays bound in the presence of the test substance.

Assay [4] concerns the target T2, SNORF62. The assay is described as follows: Calcium-activated Cl- currents in Xenopus oocytes injected with SNORF62 mRNA. Further details: from linearized plasmids or PCR products containing the complete coding region of the gene; expressed in transfected cells; host or cells: Xenopus laevis oocytes injected with in vitro transcribed SNORF62 mRNA. The following applies: 1 μM peptide, n=3. In kind it is cell-based. As for the experimental part: Heterologous expression of GPCRs in Xenopus oocytes has been widely used to determine the identity of signaling pathways activated by agonist stimulation (Gundersen et al., 1983; Takahashi et al., 1987). Activation of the phospholipase C (PLC) pathway is assayed by applying a test compound in ND96 solution to oocytes previously injected with mRNA for the human SNORF62 and observing inward currents at a holding potential of approximately −80 mV. The appearance of currents that reverse at −25 mV and display other properties of the Ca^++-activated Cl^− channel is indicative of receptor-acitivation of PLC and release of IP3 and intracellular Ca^++.
In the present invention, oocytes were harvested from Xenopus laevis and injected with mRNA transcripts as previously described (Quick and Lester, 1994; Smith et al., 1997). SNORF62 mRNA transcript was synthesized using the T7 polymerase (“Message Machine”, Ambion) from linearized plasmids or PCR products containing the complete coding region of the gene. Oocytes were injected with 1–50 ng synthetic receptor RNA and incubated for 3–8 days at 17° C. Currents were recorded under dual electrode voltage clamp (Axon Instruments Inc.) with 3 M KCl-filled glass microelectrodes having resistances of 1–2 Mohm. Unless otherwise specified, oocytes were voltage clamped at a holding potential of −80 mV. […]

The target in assay [5] is T3, human SNORF62 receptor (human, UniProt Q9HB89 1-426).
T3 sequence: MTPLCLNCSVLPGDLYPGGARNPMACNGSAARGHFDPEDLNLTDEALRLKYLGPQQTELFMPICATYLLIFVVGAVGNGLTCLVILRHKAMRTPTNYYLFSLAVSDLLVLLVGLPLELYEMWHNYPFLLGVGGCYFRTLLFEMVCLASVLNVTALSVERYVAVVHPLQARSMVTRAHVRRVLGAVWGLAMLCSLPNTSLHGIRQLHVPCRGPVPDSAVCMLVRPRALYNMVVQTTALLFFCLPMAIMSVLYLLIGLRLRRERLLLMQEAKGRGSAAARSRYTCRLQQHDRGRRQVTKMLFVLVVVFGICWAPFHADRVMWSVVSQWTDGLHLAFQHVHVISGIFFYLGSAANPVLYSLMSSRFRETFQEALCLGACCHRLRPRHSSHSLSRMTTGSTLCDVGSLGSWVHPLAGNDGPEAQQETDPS
The assay is described as follows: cell-based or functional assay.

Assay [6] has as its target T4, human SNORF72 receptor (human, UniProt Q9GZQ4 1-415). Kind of assay: cell-based or functional assay.
In assay [7] the target is T3, human SNORF62 receptor. The assay is described as follows: cell-based or functional assay. The source holds these as a separate data set.
Assay [8] deals with T3, human SNORF62 receptor. The assay is described as follows: cell-based or functional assay. The source holds these as a separate data set.
For assay [9], the target named is T4, human SNORF72 receptor. The assay is described as follows: cell-based or functional assay. This is another data set of the same source.
Assay [10] concerns the target T3, human SNORF62 receptor. Kind of assay: displacement of [125I]rat NMU-23, membranes of SNORF62-transfected COS-7 cells. As for the experimental part:
as §5, with “µg/ml.” for “μg/ml.”

Assay [11] concerns the target T4, human SNORF72 receptor. The assay is described as follows: displacement of [125I]rat NMU-23, membranes of SNORF72-transfected COS-7 cells. As for the experimental part: as §5, with “µg/ml.” for “μg/ml.”
Assay [12] addresses T3, human SNORF62 receptor. Kind of assay: displacement of [125I]rat NMU-23 (0.05-0.1 nM), membranes of SNORF62-transfected COS-7 cells, n=2. Here is the method:
as §5, with “µg/ml.” for “μg/ml.”

Assay [13] addresses T4, human SNORF72 receptor. The assay is described as follows: displacement of [125I]rat NMU-23 (0.05-0.1 nM), membranes of SNORF72-transfected COS-7 cells, n=2. As for the experimental part: as §5, with “µg/ml.” for “μg/ml.”
For assay [14], the target named is T3, human SNORF62 receptor. Kind of assay: saturation radioligand binding, membranes of SNORF62-transfected COS-7 cells, n=2. As for the experimental part: as §5, with “µg/ml.” for “μg/ml.”
Assay [15] addresses T4, human SNORF72 receptor. Kind of assay: saturation radioligand binding, membranes of SNORF72-transfected COS-7 cells, n=2. As for the experimental part:
as §5, with “µg/ml.” for “μg/ml.”

T4 sequence (Q9GZQ4 other isoform, or with tags, fused parts or gaps): as the sequence (Q9GZQ4 whole entry A395T) above

Consider `CC[C@H](C)[C@H](NC(=O)[C@@H]1CCCN1C(=O)CNC(=O)[C@H](CCC(N)=O)NC(=O)[C@H](Cc1ccccc1)NC(=O)[C@H](CCC(=O)O)NC(=O)[C@H](CCC(=O)O)NC(=O)[C@H](CC(=O)O)NC(=O)[C@@H](NC(=O)[C@H](CCCCN)NC(=O)[C@@H](N)Cc1ccccc1)C(C)C)C(=O)N[C@H](C(=O)N[C@@H](CO)C(=O)N[C@@H](CCC(N)=O)C(=O)N[C@@H](CC(N)=O)C(=O)N[C@@H](CCCNC(=N)N)C(=O)N[C@@H](CCCNC(=N)N)C(=O)N[C@@H](Cc1ccc(O)cc1)C(=O)N[C@@H](Cc1ccccc1)C(=O)N[C@@H](CC(C)C)C(=O)N[C@@H](Cc1ccccc1)C(=O)N[C@@H](CCCNC(=N)N)C(=O)N1CCC[C@H]1C(=O)N[C@@H](CCCNC(=N)N)C(=O)N[C@@H](CC(N)=O)C(N)=O)C(C)C` [porcine NMU-25, FKVDEEFQGPIVSQNRRYFLFRPRN—NH2], for which the EC50 (in general, the concentration that produces a half-maximal response) in assay [1] was found to be 3 ± 0.7 nM; in [2], 5.2 ± 0.8 nM. For the same molecule, the Ki (in general, a dissociation constant, usually derived from enzyme kinetics or from competition with a known ligand) in assay [3] worked out at 1.1 ± 0.2 nM. Also, in [4], the current amplitude came out at 2150±330 nA.
Turning to YKVNEYQGPVAPSGGFFLFRPRN-NH2 (also called rat neuromedin U-23) [rat NMU-23], in [5], the “EC50, release of IP second messengers in SNORF62-transfected COS-7 cells” value is 0.23 nM. The “EC50, Ca2+ release in SNORF72-transfected COS-7 cells” value in assay [6] is 1.7 nM and 5.1 nM. The “AVG EC50 (nM), stimulation of Ca++ release in SNORF62-transfected COS-7 cells (FLIPR)” value in [7] is 2.1 nM. Moreover, the “Avg EC50 (nM), stimulation of Ca2+ release in SNORF62-transfected COS-7 cells” value in assay [8] came to 2.1 nM. In addition, the “Avg EC50 (nM), stimulation of Ca2+ release in SNORF72-transfected COS-7 cells” value in assay [9] stood at 5 nM. For the same molecule, the Ki in assay [10] and in [11] was 0.5 nM in each case. Besides, the negative-log Ki (pKi) (in general, the Ki on a negative log10 scale, so that one unit is a factor of ten) is 9.4 in assay [12] and 9 in [13].

B1: [125I]rat NMU-23 (peptide)
peptide: YKVNEYQGPVAPSGGFFLFRPRN-NH2
modifications: also: 125I-labelled, residue not given here
notes: Radioligand from NEN, specific activity 2200 Ci/mmole; also called radioiodinated rat NMU-23
As for B1, the Kd (in general, the concentration at which binding is half-saturated) in assay [14] is 0.61 nM and 0.72 nM; in [15] it was 0.81 nM and 0.96 nM.
